Results from patent US10864251B2, “Peptides of syndecan-1 for inhibiting angiogenesis” (Wisconsin Alumni Research Foundation, priority 2006, dated 2020).

Experiments:
[1] = system: human aortic endothelial cells (HAEC); assay: Cell attachment and spreading on VN, HAECs; assay type: cell-based
Procedure: FIG. 2—Human aortic endothelial cells rely on αvβ3 and αvβ5 integrins for spreading on VN. Human aortic endothelial cells (HAECs) were suspended and replated on 10 μg/ml VN in the presence of integrin inhibitory antibodies mAb 13 (specific for β1-containing integrins; this will inhibit the αvβ1 integrin), LM609 (specific for the αvβ3 integrin) and P1F6 (specific for the αvβ5 integrin), or combinations of these mAbs. After 2 hr, the cells were fixed, stained with Alexa488-conjugated phalloidin to aid in visualization, and observed by fluorescence microscopy to document integrin-dependent spreading. Inhibition of spreading requires simultaneous inhibition of both αvβ3 and αvβ5 integrins.
FIG. 3—αvβ3 and αvβ5 integrin-mediated spreading of human aortic endothelial cells on VN is disrupted by recombinant Sdc1 ectodomain fusion protein. HAECs were plated on VN in the presence of no competitor, 1-10 μM GST-mS1ED (recombinant mouse Sdc1 ectodomain expressed as a fusion protein with GST) or GST alone.
FIG. 4—Inhibition of HAEC spreading on VN by silencing of Sdc-1. […]
FIGS. 10A-10D—Dependence of HMEC cell attachment and spreading on integrin activation by Sdc1 and its inhibition by SSTN. […] Sdc1 expression was quantified by flow cytometry using human Sdc1-specific mAb B-B4 or a control mouse IgG. […]

[2] = molecular target: T1, syndecan-1 association with the αvβ3 integrin (Homo sapiens, UniProt P05106+P06756); assay: Co-immunoprecipitation of αvβ3 integrin with syndecan-1 from MDA-MB-231 cells; assay type: binding
T1 construct: endogenous in cells; host or cells: MDA-MB-231 human mammary carcinoma cells (some also transfected with mouse syndecan-1 constructs)
From the text: FIGS. 8A-8D—SSTN disrupts association of syndecan-1 with the αvβ3 and αvβ5 integrins. (FIG. 8A) Diagram of mouse syndecan-4 (mS4), human syndecan-1 (hS1) and mouse syndecan-1 (mS1) and mS1 deletion mutants showing which proteoglycans are able to activate the αvβ3 and αvβ5 integrins. (FIG. 8B) Flow cytometry of human aortic endothelial cells (HAEC), human dermal microvascular endothelial cells (HMEC-1) or mouse aortic endothelial cells (MAEC) using human or mouse-specific antibodies for syndecan-1, αvβ3, and αvβ5. The β5 subunit is detected by Western blot in mouse cells and is compared to B82L fibroblasts known to express this integrin; (FIG. 8C) Human syndecan-1 is immunoprecipitated from HMEC-1 cells in the presence or absence of 30 μM GST, 30 μM GST-mS1ED (mouse syndecan-1 ectodomain), or 1 μM SSTN and detected on blots along with co-precipitating β3 or β5 integrin. (FIG. 8D) Human syndecan-1 is immunoprecipitated from MDA-MB-231 human mammary carcinoma cells expressing full-length mouse syndecan-1 (F1-mS1), a mouse mutant bearing deletion of amino acids 67-121 (mS1^Δ67-121), or vector alone (NEO) and blotted for the co-precipitation of the αvβ3 integrin by detection of the β3 subunit. […]

T1 sequence (P06756 31-889 limits assumed): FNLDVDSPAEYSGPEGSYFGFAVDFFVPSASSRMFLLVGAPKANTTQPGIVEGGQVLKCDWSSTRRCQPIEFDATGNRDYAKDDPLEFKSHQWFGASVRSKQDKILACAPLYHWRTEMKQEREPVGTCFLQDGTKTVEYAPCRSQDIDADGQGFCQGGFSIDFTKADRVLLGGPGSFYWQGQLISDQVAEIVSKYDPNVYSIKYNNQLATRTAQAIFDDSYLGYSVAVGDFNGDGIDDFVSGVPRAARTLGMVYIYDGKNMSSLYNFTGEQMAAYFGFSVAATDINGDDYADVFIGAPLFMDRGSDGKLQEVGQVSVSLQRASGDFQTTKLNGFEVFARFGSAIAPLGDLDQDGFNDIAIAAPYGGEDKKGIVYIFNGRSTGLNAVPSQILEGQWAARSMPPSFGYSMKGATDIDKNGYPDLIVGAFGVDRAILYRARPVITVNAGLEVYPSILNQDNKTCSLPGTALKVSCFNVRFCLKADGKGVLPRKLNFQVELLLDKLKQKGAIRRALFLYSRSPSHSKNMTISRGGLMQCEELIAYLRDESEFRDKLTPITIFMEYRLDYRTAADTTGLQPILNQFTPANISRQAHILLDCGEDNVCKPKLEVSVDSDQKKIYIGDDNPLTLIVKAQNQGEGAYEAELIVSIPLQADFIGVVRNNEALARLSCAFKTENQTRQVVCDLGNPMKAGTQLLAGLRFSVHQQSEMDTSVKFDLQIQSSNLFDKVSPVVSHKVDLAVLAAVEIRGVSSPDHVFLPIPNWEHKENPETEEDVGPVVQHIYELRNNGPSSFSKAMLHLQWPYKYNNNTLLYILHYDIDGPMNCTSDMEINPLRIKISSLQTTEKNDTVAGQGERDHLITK
T1 sequence (P06756 891-1048 limits assumed): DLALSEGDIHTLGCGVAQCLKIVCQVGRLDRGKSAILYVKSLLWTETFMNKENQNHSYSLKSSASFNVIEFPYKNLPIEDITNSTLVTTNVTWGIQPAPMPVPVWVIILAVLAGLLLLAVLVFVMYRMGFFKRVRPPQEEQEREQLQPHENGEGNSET
T1 sequence (P05106 27-788): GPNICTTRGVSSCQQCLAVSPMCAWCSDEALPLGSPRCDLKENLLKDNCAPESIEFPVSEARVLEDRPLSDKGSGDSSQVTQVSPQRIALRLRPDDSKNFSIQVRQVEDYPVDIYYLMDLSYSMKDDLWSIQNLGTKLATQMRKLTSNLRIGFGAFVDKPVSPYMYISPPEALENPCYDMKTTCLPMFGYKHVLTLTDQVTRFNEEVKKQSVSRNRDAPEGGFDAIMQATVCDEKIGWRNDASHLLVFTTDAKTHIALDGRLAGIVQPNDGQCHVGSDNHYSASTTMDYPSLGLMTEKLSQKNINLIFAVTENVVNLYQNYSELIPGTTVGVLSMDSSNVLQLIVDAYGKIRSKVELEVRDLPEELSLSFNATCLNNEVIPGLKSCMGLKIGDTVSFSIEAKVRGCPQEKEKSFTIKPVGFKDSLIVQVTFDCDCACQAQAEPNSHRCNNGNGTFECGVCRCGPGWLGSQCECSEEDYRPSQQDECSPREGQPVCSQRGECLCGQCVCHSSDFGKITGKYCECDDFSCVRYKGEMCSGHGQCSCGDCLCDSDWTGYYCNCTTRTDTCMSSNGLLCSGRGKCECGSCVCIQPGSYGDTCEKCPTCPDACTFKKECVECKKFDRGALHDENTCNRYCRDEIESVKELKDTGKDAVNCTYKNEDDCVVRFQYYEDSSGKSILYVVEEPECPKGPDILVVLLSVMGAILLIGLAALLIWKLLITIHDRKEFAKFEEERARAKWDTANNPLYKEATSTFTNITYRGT

IC50 ([1]; read-out: IC50, cell spreading on vitronectin): ~1 µM
co-immunoprecipitation of αvβ3 integrin with human or mouse syndecan-1 [2]: competed
B1: S1ED: recombinant mouse Sdc1 ectodomain (amino acids 18-251), expressed in bacteria as GST fusion or 6×His-tagged protein (protein)
chain: QPALPQIVAVNVPPEDQDGSGDDSDNFSGSGTGALPDTLSRQTPSTWKDVWLLTATPTAPEPTSSNTETAFTSVLPAGEKPEEGEPVLHVEAEPGFTARDKEKEVTTRPRETVQLPITQRASTVRVTTAQAAVTSHPHGGMQPGLHETSAPTAPGQPDHQPPRVEGGGTSVIKEVVEDGTANQLPAGEGSGEQDFTFETSGENTAVAAVEPGLRNQPPVDEGATGASQSLLDRK
modifications: left off: a dimerising Fc or GST
notes: recombinant mouse Sdc1 ectodomain (amino acids 18-251), expressed in bacteria as GST fusion or 6×His-tagged protein
cell spreading on VN ([1]; soluble competitor 1-10 μM (FIG. 3)): blocked
